{"source": "patent EP4559937A1", "about": "(Universitat de Barcelona, dated 2025)"}
{"biological_target": "T1, Recombinant CD7 protein (ACRO biosystems, Cat No CD-H52H7), labeled with Alexa Fluor 647 (UniProt P09564 26-180, limits assumed, Alexa Fluor 647 NHS Ester label, sites not stated)", "T1 construct": "Bought protein; also called fluorescently labelled CD7; Alexa Fluor 647-labeled CD7", "T1 sequence (looked up)": "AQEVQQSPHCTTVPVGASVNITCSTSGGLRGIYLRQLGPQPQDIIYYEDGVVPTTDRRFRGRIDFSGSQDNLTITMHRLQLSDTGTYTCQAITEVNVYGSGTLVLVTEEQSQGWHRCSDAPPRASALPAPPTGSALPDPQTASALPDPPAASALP", "test": "microfluidic antibody-affinity profiling (MAAP), Fluidity One-W, hybridoma supernatant with Alexa Fluor 647-labelled CD7, Bayesian inference", "units": {"Kd": "nM"}}
{"binder": "124.1D1 murine anti-CD7 mAb (antibody, V domains shown, Murine monoclonal antibody, tested as hybridoma culture supernatant; also called CD7_124.1D1) VH: DVQLQESGPGLVKPSQSLSLTCTVTGYSITSDYAWNWIRQFPGNKLEWLGYISYSGSTSYNPSLKSRISITRDTSKNQFFLQLNSVTTEDTATYYCAKSQLGRWAMDYWGQGTSVTVSS VL: DILLTQSPAILSVSPGERVSFSCRASQSIGTSIHWYQQRTNDSPRLLIKYASESISGIPSRFSGSGSGTDFTLNINSVESEDIADYYCQQSISWPLTFGPGTKLELK", "Kd": 13.6}
{"binder": "142.24 murine anti-CD7 mAb (antibody, V domains shown, Murine monoclonal antibody, tested as hybridoma culture supernatant; also called CD7_142.24) VH: QLVQSGPEVKKPGETVKISCKASGYSFTHYGVNWVKQAPGKGLKWMGWINTNTGKPTYAEDFKGRFAFSLETSARTAYLQINNLKNEDTATYFCARWSTTVVAPYFDVWGAGTTVTVSS VL: DILLTQSPAILSVSPGERVSFSCRASQNIGTSIHWFQQRSNGSPSLLIKYASESMSGIPSRFSGSGSGTDFTLSINSVEPEDIADYYCQQSNRWPYTFGGGTKLEIK", "Kd": 22.4}
{"binder": "142.9 murine anti-CD7 mAb (antibody, V domains shown, Murine monoclonal antibody, tested as hybridoma culture supernatant; also called CD7_142.9) VH: QVQLQQSGAELVRPGTSVKISCKASGYTFTNYWLGWVKQRPGHGLEWIGDFYPGSIYTNYNENFQGKATLTADTSSSTAYMQLSSLTSEDSAVYFCAREGDYYGSGHFDYWGQGTTLTVSS VL: EILLTQSPAIIAASPGEKVTITCSARSSVSYMNWYQQKSGSSPKIWIYGISNLASGVPARFSGSGSGTSFSFTINSMEAEDVAYYYCQLRSSYSRTFGGGTKLEIK", "Kd": 52.4}
